# Measurements reported in patent publication US8586538B2, “Method of treating a patient suffering from a bleeding disorder comprising administering an antibody against the A3-C1 of FVIII” (Stichting Sanquin Bloedvoorziening, priority 2002, dated 2013).
# B1: scFv KM41: scFv antibody fragment directed against FVIII region Arg^1803-Lys^1818 (protein)
# scFv: QVQLLQSAADVKKPGASVKVSCTASGYIFTSYDIDWVRQATGQGLEWMGWMNPNSGNAGFAQKFKGRLTLTRDTSTSTAYMELRRLESEDTAVYYCARSTPHSYSGSGLPPTSDSWGQGTLVTVSSGGGGSGGGGSGGGGSEIVLTQSPGTLSLSPGERATLSCRASQSVSSSFLGWYQQKPGQAPRLLIYGASSRATGIPDRFSGSGSGTDFTLTISRLEPEDFAVYYCQQYGISPLTFGGGTKLEIKRAAAEQKLISEEDLNGAAHHHHHH
# Key:
# [1] = target: T1, wild-type recombinant FVIII light chain (Homo sapiens, UniProt P00451); assay: SPR binding of scFv KM41 to wild-type recombinant FVIII light chain; conditions: scFv 40 nM
# T1 construct: FVIII/FV^1811-1818 light chain chimera and wild-type FVIII light chain were purified employing Q-Sepharose chromatography; made in house; host or cells: murine fibroblasts (C127) cells
# T1 sequence (P00451 1668-2351 limits assumed): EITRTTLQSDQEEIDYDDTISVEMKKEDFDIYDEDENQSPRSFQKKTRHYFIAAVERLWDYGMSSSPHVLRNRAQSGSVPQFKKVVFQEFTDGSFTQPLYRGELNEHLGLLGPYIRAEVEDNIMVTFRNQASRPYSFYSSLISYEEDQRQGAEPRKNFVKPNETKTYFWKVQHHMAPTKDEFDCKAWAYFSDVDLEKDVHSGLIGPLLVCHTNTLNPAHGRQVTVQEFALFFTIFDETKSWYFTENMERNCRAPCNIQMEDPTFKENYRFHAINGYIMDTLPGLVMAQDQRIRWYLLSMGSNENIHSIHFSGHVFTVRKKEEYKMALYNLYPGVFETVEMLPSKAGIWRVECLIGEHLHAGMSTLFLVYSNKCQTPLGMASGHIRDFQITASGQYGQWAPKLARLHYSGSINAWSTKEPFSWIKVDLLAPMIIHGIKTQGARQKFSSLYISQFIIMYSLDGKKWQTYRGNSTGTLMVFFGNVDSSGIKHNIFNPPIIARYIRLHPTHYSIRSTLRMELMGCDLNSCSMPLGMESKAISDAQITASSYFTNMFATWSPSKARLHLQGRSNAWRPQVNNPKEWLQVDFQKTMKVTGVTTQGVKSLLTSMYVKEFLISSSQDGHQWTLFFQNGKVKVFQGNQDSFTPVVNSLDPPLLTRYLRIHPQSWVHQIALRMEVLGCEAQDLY
# Protocol: FIG. 7. Binding of scFv KM41 to the FVIII/FV^1811-1818 light chain chimera. ScFv EL14 at a CM5 sensor chip (67 fmol/mm^2) was incubated with either the recombinant wild-type FVIII light chain or the recombinant FVIII/FV^1811-1818 chimera till a density of 20 fmol/mm^2, in 150 mM NaCl, 50 mM Tris (pH 7.4). ScFv KM41 (40 nM) was passed over two separate channels with immobilized intact FVIII light chain (I) or FVIII/FV^1811-1818 chimera (II), respectively. Response is indicated as Resonance Units (RU) and is corrected for nonspecific binding.
# The kinetics of protein interactions was determined by surface plasmon resonance (SPR) analysis, employing a BIAcore™2000 biosensor system (Biacore AS, Uppsala, Sweden). […] Association of analyte was assessed in 150 mM NaCl, 2 mM CaCl2, 0.005% (v/v) Tween® 20, and 20 mM Hepes (pH 7.4) for 2 min, at a flow rate of 20 μl/min at 25° C. […] The association (kon) and dissociation (koff) rate constants were determined by using the BIAevaluation software 3.1 (Biacore AB, Uppsala, Sweden). […] Equilibrium dissociation constants (kd) were calculated from the ratio koff/kon. […]
# [2] = target: T2, interaction between FVIII light chain and LRP (Homo sapiens, UniProt P00451); assay: SPR competition: FVIII light chain binding to immobilized LRP; conditions: FVIII light chain 50 nM; scFv 20-500 nM
# T2 construct: from tissue; host or cells: FVIII light chain from plasma; LRP from placenta
# T2 sequence (P00451 1668-2351 limits assumed): T1 sequence (P00451 1668-2351 limits assumed)
# Protocol: FIG. 4. Effect of scFv antibody fragments on the interaction between FVIII light chain and LRP. A, FVIII light chain (LCh) (25 nM) was incubated with immobilized LRP cluster II (1 pmol/well) in a volume of 50 μl in 150 mM NaCl, 5 mM CaCl2, 1% (w/v) HSA, 0.1% Tween® 20, and 50 mM Tris (pH 7.4) in the presence of various concentrations (0-100 nM) of scFv KM41 (closed circles) or scFv KM36 (open circles) for 2 h at 37° C. After washing with the same buffer, bound FVIII light chain was quantified by incubation with peroxidase-conjugated anti-FVIII antibody CLB-CAg 12 for 15 min at 37° C. Residual binding is expressed as the percentage of binding in the absence of competitor and is corrected for nonspecific binding (less than 5% relative to binding to LRP cluster II-immobilized wells). […] Binding was assessed in the absence (curve 1) or in the presence of increasing concentrations of scFv KM41 (20, 60, 300, 500 nM, curves 2-5, respectively). […]
# The kinetics of protein interactions was determined by surface plasmon resonance (SPR) analysis, employing a BIAcore™2000 biosensor system (Biacore AS, Uppsala, Sweden). […] Association of analyte was assessed in 150 mM NaCl, 2 mM CaCl2, 0.005% (v/v) Tween® 20, and 20 mM Hepes (pH 7.4) for 2 min, at a flow rate of 20 μl/min at 25° C. […] Equilibrium dissociation constants (kd) were calculated from the ratio koff/kon. […]
molecule,measurement,setting,value
B1,Binding of scFv to immobilized wild-type recombinant FVIII light chain,[1],readily reacted
same,Effect on association of FVIII light chain with immobilized LRP,[2],only partially inhibits
